Laboratory results from US12070483B2, “Compositions and methods for treatment of acute lung injury” (THE TRUSTEES OF THE UNIVERSITY OF PENNSYLVANIA, priority 2018, dated 2024).

Key:
[1] = system: mouse models of LPS-induced ALI; conditions: previous studies; cited from earlier work
recombinant hPrdx6 = target: T1, recombinant hPrdx6 (Homo sapiens, UniProt P30041); test: aiPLA2 activity of recombinant human Prdx6 in presence of peptide; format: biochemical; conditions: for aiPLA2 activity of recombinant hPrdx6: Table 1, hPrdx6 only (no peptide) 93.4; for aiPLA2 activity of human recombinant protein: Table 2, hPrdx6 only 92.0; for aiPLA2 activity of human recombinant Prdx6: Table 3, hPrdx6 only 99.91
T1 sequence (P30041 1-224): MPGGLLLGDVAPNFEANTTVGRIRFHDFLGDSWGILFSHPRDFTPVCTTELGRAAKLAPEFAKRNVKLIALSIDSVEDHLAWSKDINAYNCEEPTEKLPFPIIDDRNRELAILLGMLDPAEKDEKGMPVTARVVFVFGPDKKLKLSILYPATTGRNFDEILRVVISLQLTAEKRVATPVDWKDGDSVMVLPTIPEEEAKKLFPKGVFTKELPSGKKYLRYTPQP

Prdx6 = target: T2, Prdx6 (Mus musculus, UniProt O08709); test: aiPLA2 (Prdx6-PLA2) activity of mouse lung homogenate after IT or IV injection of PIP; format: in vivo; conditions: Table 6
T2 construct: from tissue; host or cells: mouse lung homogenate (wild type mice)
T2 sequence (O08709 1-224): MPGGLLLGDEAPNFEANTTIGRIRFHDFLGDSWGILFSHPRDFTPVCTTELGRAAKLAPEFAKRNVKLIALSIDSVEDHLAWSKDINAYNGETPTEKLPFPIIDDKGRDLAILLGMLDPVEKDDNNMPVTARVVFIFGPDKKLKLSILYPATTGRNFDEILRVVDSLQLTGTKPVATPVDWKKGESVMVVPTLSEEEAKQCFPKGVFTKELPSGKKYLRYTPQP
Experimental: FIG. 6: PIP-2 in liposomes was administered to mice either intratracheally (IT) or intravenously (IV) at 0 time. Lungs were harvested at intervals between 4 and 72 h after the PIP-2 administration, homogenized, and analyzed for Prdx6-PLA2 activity. PIP-2 is effective by either the IT or IV route with a calculated ½ time for recovery of ˜50 h. Results are mean+SE for N=3-4.
PIP-2 in liposomes injected IV or IT inhibits Prdx6 activity of the lung homogenate. Maximal inhibition was seen within 4 hours after administration of PIP-2. Recovery from inhibition began at ˜36 hours and was complete by 48 hours. Results are similar for PIP-1,2,4 (PIP-3 and -5 were not tested). […] Effectiveness requires liposomes for peptide delivery. Inhibition after IT or IV administration was similar.

NOX2 = test: ROS production (Amplex red) of isolated perfused mouse lung stimulated with angiotensin II; format: in vivo; conditions: mouse, ex_vivo
Experimental: FIGS. 5A and 5B: PIP-2, incorporated within liposomes, was instilled intratracheally prior to lung isolation. FIG. 5A: Isolated lungs were perfused in a recirculating system with artificial medium. NOX2 activity was stimulated by addition of angiotensin II (Ang II). Amplex red along with horseradish peroxidase were added to the perfusate for detection of ROS production. Aliquots of perfusate were analyzed at intervals by spectrophotometry to determine oxidation of amplex red, indicating ROS production. Results are mean±SE for N=3-4. FIG. 5B: Mice were sacrificed at 6, 12, or 24 h after LPS administration ([…]) and lungs were perfused in situ for 15 min with saline solution containing a fluorophore (difluorofluorescein diacetate, DFFDA). Lungs then were homogenized and fluorescence of the lung homogenate was determined as an index of ROS production. Results for FIG. 5A & FIG. 5B are mean±SE for N=4. *P<0.05 vs corresponding LPS and LPS+PIP-2; § P<0.05 vs 12 h and 24 h LPS; ΔP<0.05 vs corresponding LPS.
FIG. 8: PLA2 inhibitory peptide (PIP-2) inhibits ROS production stimulated by angiotensin II (Ang II) in isolated perfused mouse lung. PIP-2 (2 μg/g body weight) was administered to intact wild type (WT) mice by the IV route. […] After 30 mins, lungs were isolated from anesthesized mice and perfused in a recirculating system with added Ang II ([…]) as a Nox2 activator and Amplex red plus horseradish peroxidase to detect perfusate ROS. WT basal lungs were not stimulated with Ang II. After a 15 min equilibration period (called zero time), aliquots were taken at 15 min intervals for analysis of fluorescence. Each plotted point represents the mean±SE for n=3. The lines were drawn by the least mean squares method. The mean rates of ROS […] calculated from the slope of each line are indicated in parentheses. *P<0.05 vs the other 3 slopes.
FIG. 10: Effect of liposome composition on delivery of PIP-2 to lungs after IV administration. […]
The effect of the PIPs on ROS production in control (untreated) lungs was determined in vitro with isolated perfused lungs. […] The basal rate of ROS production was evaluated with WT lungs that were perfused in the absence of AngII. […] Aliquots of perfusate were taken at 15 min intervals and analyzed by fluorescence for resorufin (λexcitation 568 nm, λemission 581 nm), the product of Amplex red oxidation. The rate of Amplex red oxidation was calculated and expressed as arbitrary fluorescence units (AFU) with normalization to mouse body wt. There was a low rate of Amplex red oxidation in the absence of HRP in the perfusate (˜7% of the AngII-stimulated fluorescence), indicating a non-ROS-mediated oxidation of the fluorophore; this value was subtracted to obtain the reported values.

Compound	aiPLA2 activity of recombinant hPrdx6 (recombinant hPrdx6) [nmol/min/mg prot.]	aiPLA2 activity of human recombinant Prdx6 (recombinant hPrdx6) [nmol/min/mg prot.]	further results
CCCCCCCCCCCCCCCCOCC(COCC(F)(F)F)OP(=O)(O)OC (centres unmarked) [MJ33]			protection in LPS-induced ALI [1]: protection
DEELQATLHDFRHQIL (Inhibitory peptide.) [PIP-1, 16 residue human peptide]	45.0		Prdx6-PLA2 activity of mouse lung homogenate (Prdx6; IT, lungs lavaged prior to assay, 0 post injection): 9.0 ± 0.2 nmol/hr/mg protein; Prdx6-PLA2 activity of mouse lung homogenate (Prdx6; IT, lungs lavaged, 4 hr post injection): 1.6 ± 0.1 nmol/hr/mg protein; Prdx6-PLA2 activity of mouse lung homogenate (Prdx6; IT, lungs lavaged, 12 hr post injection): 1.6 ± 0.1 nmol/hr/mg protein; Prdx6-PLA2 activity of mouse lung homogenate (Prdx6; IT, lungs lavaged, 24 hr post injection): 1.7 ± 0.2 nmol/hr/mg protein; Prdx6-PLA2 activity of mouse lung homogenate (Prdx6; IT, lungs lavaged, 48 hr post injection): 2.9 ± 0.2 nmol/hr/mg protein; Prdx6-PLA2 activity of mouse lung homogenate (Prdx6; IV, 0 post injection): 8.8 ± 0.3 nmol/hr/mg protein; Prdx6-PLA2 activity of mouse lung homogenate (Prdx6; IV, 4 hr post injection): 1.4 nmol/hr/mg protein; Prdx6-PLA2 activity of mouse lung homogenate (Prdx6; IV, 12 hr post injection): 1.5 nmol/hr/mg protein; Prdx6-PLA2 activity of mouse lung homogenate (Prdx6; IV, 24 hr post injection): 1.8 ± 0.1 nmol/hr/mg protein
DEELQTEL [SEQ ID NO: 18]	93.6		
DEELQTELYEI (Inhibitory peptide.) [SEQ ID NO: 17]	94.9		
DEELQTELYEIK (Inhibitory peptide.) [SEQ ID NO: 16]	95.7		
DEELQTELYEIKHQ (Inhibitory peptide.) [SEQ ID NO: 15]	102		
DEELQTELYEIKHQIL (Inhibitory peptide.) [PIP-3, 16 residue rat, mouse peptide]	32.0		aiPLA2 activity of recombinant hPrdx6 (recombinant hPrdx6; listed as SEQ ID NO: 9): 20.1 nmol/min/mg prot.; aiPLA2 activity of human recombinant protein (recombinant hPrdx6): 32.0 nmol/min/mg prot.
ELQTELYEIKHQIL (Inhibitory peptide.) [SEQ ID NO: 10]	33.2		
ELYEIKHQI (Inhibitory peptide.) [SEQ ID NO: 22]			aiPLA2 activity of human recombinant protein (recombinant hPrdx6): 93.5 nmol/min/mg prot.
ELYEIKHQIL (Inhibitory peptide.) [SEQ ID NO: 12]	28.6		
IKHQIL (DEELQTELYEIKHQ; Inhibitory peptide.) [SEQ ID NO: 14]	97.1		
LFKLEHQIL [SN023]		97.95	
LHDFRDQIL [SN024]		102.04	
LHDFRHNIL [SN026]		98.97	
LHDFRHQI [SEQ ID NO: 21]			aiPLA2 activity of human recombinant protein (recombinant hPrdx6): 93.6 nmol/min/mg prot.
LHDFRHQLL (LHDFRHQTL; Inhibitory peptide.) [SN028]		102.45	
LHDFRPQIL [SN025]		101.34	
LHEFKHQIL [SN022]		99.42	
LKIEYHQIL [SN019]		97.67	
LRFDHHQIL [SN020]		98.97	
LYDIRHQIL (Inhibitory peptide.) [PIP-5]		29.74	ROS production by AngII-activated NOX2 in the isolated mouse lung (NOX2): inhibit ROS production
LYEIKHQI [SEQ ID NO: 23]			aiPLA2 activity of human recombinant protein (recombinant hPrdx6): 92.1 nmol/min/mg prot.
QTELYEIKHQIL (Inhibitory peptide.) [SEQ ID NO: 11]	31.5		
TLHDFRHQI (Inhibitory peptide.) [SEQ ID NO: 20]			aiPLA2 activity of human recombinant protein (recombinant hPrdx6): 89.6 nmol/min/mg prot.
TLHDFRHQIL (Inhibitory peptide.) [SEQ ID NO: 19]			aiPLA2 activity of human recombinant protein (recombinant hPrdx6): 31.5 nmol/min/mg prot.
YEIKHQIL (Inhibitory peptide.) [SEQ ID NO: 13]	94.4		
